No end group written: not given here. TAT = TAT cell-penetrating sequence fused at N-terminus
B1: peptide25 (ERTYSPSTAVRS) (peptide)
peptide: ERTYSPSTAVRS
notes: also called PD2w-5; Pep25-4
B2: TATpeptide25 (peptide25 with the TAT sequence fused at its N-terminal end) (peptide)
peptide: {TAT}-ERTYSPSTAVRS
notes: Synthetic peptide added to the cell culture medium

How the values were obtained:
ROCK1 [1] = target: T1, ROCK1 (UniProt Q13464 1-553, limits assumed); assay: SPR (BiaCore, proteins immobilized on CM-5 chip)
T1 construct: also called Rho-associated kinase 1; p160ROCK
T1 sequence (Q13464 1-553 limits assumed): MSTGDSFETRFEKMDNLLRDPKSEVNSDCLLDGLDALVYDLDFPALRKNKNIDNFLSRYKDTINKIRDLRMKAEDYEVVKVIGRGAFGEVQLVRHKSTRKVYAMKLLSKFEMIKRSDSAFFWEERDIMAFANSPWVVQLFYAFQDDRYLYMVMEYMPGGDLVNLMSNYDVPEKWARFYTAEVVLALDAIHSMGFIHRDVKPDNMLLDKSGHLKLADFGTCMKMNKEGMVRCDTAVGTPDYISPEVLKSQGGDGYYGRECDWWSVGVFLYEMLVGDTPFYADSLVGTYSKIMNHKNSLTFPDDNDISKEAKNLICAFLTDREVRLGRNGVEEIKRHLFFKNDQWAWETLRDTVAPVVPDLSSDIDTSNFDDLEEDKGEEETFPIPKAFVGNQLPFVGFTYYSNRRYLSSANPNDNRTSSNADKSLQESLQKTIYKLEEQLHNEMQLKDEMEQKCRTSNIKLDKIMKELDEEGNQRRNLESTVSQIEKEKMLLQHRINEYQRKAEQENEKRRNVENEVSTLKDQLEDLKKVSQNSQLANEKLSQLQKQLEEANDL

ROCK1 [2] = target: T1, ROCK1; assay: SPR (BiaCore), protein immobilized on CM-5 chip, peptide as analyte; the sheet does not say whether ROCK-I is ROCK1-553 or ROCK1-415
ROCK2 = target: T2, ROCK2 (UniProt O75116 5-554, limits assumed); assay: SPR (BiaCore), protein immobilized on CM-5 chip, peptide as analyte; no ROCK-II sensorgram is drawn
T2 construct: also called ROKa
T2 sequence (O75116 5-554 limits assumed): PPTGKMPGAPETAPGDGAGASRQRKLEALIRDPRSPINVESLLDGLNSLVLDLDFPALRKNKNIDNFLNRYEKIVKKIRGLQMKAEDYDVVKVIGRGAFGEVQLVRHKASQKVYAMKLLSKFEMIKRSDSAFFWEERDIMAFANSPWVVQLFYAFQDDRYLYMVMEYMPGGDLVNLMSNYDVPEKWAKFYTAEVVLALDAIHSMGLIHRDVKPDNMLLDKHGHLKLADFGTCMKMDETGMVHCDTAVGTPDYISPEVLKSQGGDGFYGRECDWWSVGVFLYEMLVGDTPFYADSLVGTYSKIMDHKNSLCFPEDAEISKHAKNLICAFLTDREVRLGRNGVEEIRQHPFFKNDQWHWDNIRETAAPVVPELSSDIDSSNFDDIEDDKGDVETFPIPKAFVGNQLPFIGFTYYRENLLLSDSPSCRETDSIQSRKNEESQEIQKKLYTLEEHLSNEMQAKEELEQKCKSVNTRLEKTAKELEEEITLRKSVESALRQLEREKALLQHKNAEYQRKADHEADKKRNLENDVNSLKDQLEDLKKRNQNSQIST

Row | Binder | Kd (ROCK1 [1]) | Kd (ROCK1 [2]) | Kd (ROCK2)
1 | B1 | 1500 nM |  | 
2 | B2 |  | 1450 nM | 5150 nM

From patent US20170296617A1 (UNIVERSITY OF HOUSTON SYSTEM, published 2017)
